Results on 5 molecules are retold here after paper PMC6126843, “A dual-specific macrophage colony-stimulating factor antagonist of c-FMS and αvβ3 integrin for osteoporosis therapy” (PLoS Biology, 2018).

Assay [1] has as its target c-FMS (Homo sapiens) (UniProt P07333). The note with it: cited from earlier work.
For assay [2], the target named is M-CSFRGD variant 5.6, purified soluble protein (human) (UniProt P09603). In words: SPR; ProteOn XPR36; M-CSF variants immobilised by amine coupling; c-FMS or αvβ3 integrin flowed at 0, 12.5, 25, 50, 100 and 200 nM, 50 μl/min, 25 °C, PBS + 0.005% Tween; KD from the equilibrium binding phase; apparent (S9 Fig legend).
Assay [3] deals with M-CSFRGD variant 4.22, purified soluble protein (human) (UniProt P09603). The assay is described as above.
Assay [4] concerns the target M-CSF_(c-FMS), monospecific M-CSF that can bind only c-FMS (human) (UniProt P09603). Described as above.
Assay [5] addresses M-CSFRGD variant 4.24, purified soluble protein (human) (UniProt P09603). The description is as above.
Assay [6] concerns the target αvβ3 integrin (Homo sapiens) (UniProt P06756). The following applies: cited from earlier work.
Assay [7] addresses M-CSF_(αvβ3), monospecific M-CSF that can bind αvβ3 integrin (human) (UniProt P09603). Put plainly: SPR; ProteOn XPR36; M-CSF variants immobilised by amine coupling; c-FMS or αvβ3 integrin flowed at 0, 12.5, 25, 50, 100 and 200 nM, 50 μl/min, 25 °C, PBS + 0.005% Tween; KD from the equilibrium binding phase; apparent (S9 Fig legend). For orientation: In SPR one partner is held on a chip, and binding of the other changes the refractive index at the surface.

The target of assay [8] is T1, soluble Fc-conjugated human c-FMS (human, UniProt P07333 20-517).
T1 construct: c-FMS (M-CSF receptor, CSF-1R), human, soluble form; Detected with goat anti-human Fc FITC; also called c-FMS-Fc; soluble c-FMS; source: bought: R&D systems
Put plainly: flow cytometry on cells; yeast surface display: yeast displaying M-CSF incubated with soluble c-FMS-Fc (0.5–2000 nM for the titration, 100 nM for the libraries, 50 nM for single clones) in PBS + 1% BSA, 1 h at room temperature; detected with goat anti-human Fc FITC; apparent. The following applies: one partner purified. Background: Flow cytometry measures light scatter and fluorescence of single cells or particles in a stream.

Chain of αvβ3 integrin (Homo sapiens) (P06756 31-992, chain 1 of 2): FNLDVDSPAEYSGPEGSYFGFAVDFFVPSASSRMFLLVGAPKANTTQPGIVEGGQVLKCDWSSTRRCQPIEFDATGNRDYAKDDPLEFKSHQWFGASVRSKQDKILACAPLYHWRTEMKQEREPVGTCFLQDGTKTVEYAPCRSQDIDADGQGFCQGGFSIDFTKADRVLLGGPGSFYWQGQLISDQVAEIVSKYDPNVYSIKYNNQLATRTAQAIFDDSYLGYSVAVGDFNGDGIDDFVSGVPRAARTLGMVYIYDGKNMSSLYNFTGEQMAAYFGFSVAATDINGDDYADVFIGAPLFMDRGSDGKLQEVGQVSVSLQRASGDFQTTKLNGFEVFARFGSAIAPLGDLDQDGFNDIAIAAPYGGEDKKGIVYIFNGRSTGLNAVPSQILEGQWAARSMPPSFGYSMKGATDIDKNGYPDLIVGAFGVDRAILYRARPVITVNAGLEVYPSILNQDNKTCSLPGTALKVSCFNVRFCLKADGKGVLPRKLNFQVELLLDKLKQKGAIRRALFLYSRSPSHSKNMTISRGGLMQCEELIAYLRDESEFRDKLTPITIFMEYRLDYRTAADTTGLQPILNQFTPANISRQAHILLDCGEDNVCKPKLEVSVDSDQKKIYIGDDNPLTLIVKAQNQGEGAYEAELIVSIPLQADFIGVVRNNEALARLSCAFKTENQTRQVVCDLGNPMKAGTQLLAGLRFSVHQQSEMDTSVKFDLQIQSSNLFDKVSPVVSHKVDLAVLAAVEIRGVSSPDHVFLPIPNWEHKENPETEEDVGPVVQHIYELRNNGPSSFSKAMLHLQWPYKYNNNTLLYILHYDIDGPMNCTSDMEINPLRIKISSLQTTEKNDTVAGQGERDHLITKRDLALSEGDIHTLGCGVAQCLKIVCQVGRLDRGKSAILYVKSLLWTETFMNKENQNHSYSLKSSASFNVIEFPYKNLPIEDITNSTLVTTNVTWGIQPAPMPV
Chain of αvβ3 integrin (Homo sapiens) (P05106 27-718, chain 2 of 2, further chain): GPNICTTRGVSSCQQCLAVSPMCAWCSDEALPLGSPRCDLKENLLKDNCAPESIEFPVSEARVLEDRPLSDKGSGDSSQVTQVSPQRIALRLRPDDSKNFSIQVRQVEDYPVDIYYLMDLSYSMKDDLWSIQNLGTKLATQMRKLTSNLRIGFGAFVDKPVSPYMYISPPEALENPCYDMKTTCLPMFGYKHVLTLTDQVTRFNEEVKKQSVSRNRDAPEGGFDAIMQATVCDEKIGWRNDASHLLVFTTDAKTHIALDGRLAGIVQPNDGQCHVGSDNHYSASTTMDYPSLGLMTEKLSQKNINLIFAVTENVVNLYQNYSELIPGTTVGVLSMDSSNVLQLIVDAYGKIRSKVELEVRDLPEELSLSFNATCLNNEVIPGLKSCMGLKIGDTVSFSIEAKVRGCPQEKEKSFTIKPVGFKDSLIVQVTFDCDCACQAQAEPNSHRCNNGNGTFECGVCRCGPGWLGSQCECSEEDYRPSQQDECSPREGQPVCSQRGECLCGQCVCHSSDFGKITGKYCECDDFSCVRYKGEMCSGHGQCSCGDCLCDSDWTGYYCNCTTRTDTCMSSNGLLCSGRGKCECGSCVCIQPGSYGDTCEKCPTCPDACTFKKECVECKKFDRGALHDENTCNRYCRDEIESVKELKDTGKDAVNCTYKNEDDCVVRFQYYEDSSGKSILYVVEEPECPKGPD
Chain of c-FMS (Homo sapiens) (P07333 20-517): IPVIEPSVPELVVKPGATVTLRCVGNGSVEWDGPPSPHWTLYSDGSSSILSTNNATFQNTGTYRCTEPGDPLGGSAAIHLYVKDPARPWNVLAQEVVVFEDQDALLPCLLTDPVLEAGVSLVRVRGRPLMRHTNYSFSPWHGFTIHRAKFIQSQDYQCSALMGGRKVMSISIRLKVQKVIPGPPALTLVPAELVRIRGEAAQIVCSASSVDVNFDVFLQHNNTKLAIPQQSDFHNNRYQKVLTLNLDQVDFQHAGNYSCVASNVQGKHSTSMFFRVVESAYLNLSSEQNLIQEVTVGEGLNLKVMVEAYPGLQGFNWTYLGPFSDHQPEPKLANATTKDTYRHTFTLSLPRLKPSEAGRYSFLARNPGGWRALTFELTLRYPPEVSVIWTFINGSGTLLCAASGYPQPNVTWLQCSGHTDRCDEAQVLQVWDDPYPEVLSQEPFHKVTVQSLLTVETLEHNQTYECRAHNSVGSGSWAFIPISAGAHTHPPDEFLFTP
T1 sequence (P07333 20-517): as above

Regarding M-CSF (from UniProt P09603), the Kd in assay [1] was 13.6 nM.

Consider “human c-FMS soluble protein (from UniProt P07333 20-517) (receptor)”, for which the Kd in assay [2] was 96 nM; in assay [3], 152 nM; in assay [4], 195 nM; in assay [5], 219 nM.

Regarding vitronectin (from UniProt P04004), the Kd in assay [6] was 40.7 nM.

Turning to “soluble human αvβ3 integrin (from UniProt P06756 31-1048; P05106 27-718) (complex)”, the Kd in assay [2] came out at 245 nM; in assay [3] it was 199 nM; in assay [5], 108 nM; in assay [7], 231 nM.

B1: M-CSF_(C31S), displayed on the yeast surface (ligand)
chain: EEVSEYCSHMIGSGHLQSLQRLIDSQMETSSQITFEFVDQEQLKDPVCYLKKAFLLVQDIMEDTMRFRDNTPNAIAIVQLQELSLRLKSCFTKDYEEHDKACVRTFYETPLQLLEKVKNVFNETKNLLDKDWNIFSKNCNNSFAECSSQ
modifications: Yeast-displayed Aga fusion with c-myc tag (carrier left out). Mature numbering +32 = precursor. Limits follow the M-CSF part of PDB 4WRL entity 2 (mature 1-149); the paper's own limits are not …
For the molecule B1, the Kd in assay [8] is 20 nM.
